Reference: ChEMBL document CHEMBL1671790, “A new β-carbonic anhydrase from Brucella suis, its cloning, characterization, and inhibition with sulfonamides and sulfamates, leading to impaired pathogen growth” (Bioorg Med Chem, 2011)

B1: Carbonic anhydrase 12 (Homo sapiens), O43570 (protein)
chain: MPRRSLHAAAVLLLVILKEQPSSPAPVNGSKWTYFGPDGENSWSKKYPSCGGLLQSPIDLHSDILQYDASLTPLEFQGYNLSANKQFLLTNNGHSVKLNLPSDMHIQGLQSRYSATQLHLHWGNPNDPHGSEHTVSGQHFAAELHIVHYNSDLYPDASTASNKSEGLAVLAVLIEMGSFNPSYDKIFSHLQHVKYKGQEAFVPGFNIEELLPERTAEYYRYRGSLTTPPCNPTVLWTVFRNPVQISQEQLLALETALYCTHMDDPSPREMINNFRQVQKFDERLVYTSFSQVQVCTAAGLSLGIILSLALAGILGICIVVVVSIWLFRRKSIKKGDNKGVIYKPATKMETEAHA
B2: Carbonic anhydrase 5A, mitochondrial (Homo sapiens), P35218 (protein)
chain: MLGRNTWKTSAFSFLVEQMWAPLWSRSMRPGRWCSQRSCAWQTSNNTLHPLWTVPVSVPGGTRQSPINIQWRDSVYDPQLKPLRVSYEAASCLYIWNTGYLFQVEFDDATEASGISGGPLENHYRLKQFHFHWGAVNEGGSEHTVDGHAYPAELHLVHWNSVKYQNYKEAVVGENGLAVIGVFLKLGAHHQTLQRLVDILPEIKHKDARAAMRPFDPSTLLPTCWDYWTYAGSLTTPPLTESVTWIIQKEPVEVAPSQLSAFRTLLFSALGEEEKMMVNNYRPLQPLMNRKVWASFQATNEGTRS

Assays:
[1] = substrate: O=C=O; experiment: Activity at human carbonic anhydrase XII by spectrophotometry at pH 7.5
[2] = substrate: O=C=O; experiment: Ratio of kcat to Km for human carbonic anhydrase XII
[3] = substrate: O=C=O; experiment: Activity at human carbonic anhydrase VA by spectrophotometry at pH 7.5
[4] = substrate: O=C=O; experiment: Ratio of kcat to Km for human carbonic anhydrase VA

Protein | kcat [1] | kcat/Km [2] | kcat [3] | kcat/Km [4]
B1 | 4.2 ×10⁵ /s | 3.5 ×10⁷ /M/s |  | 
B2 |  |  | 2.9 ×10⁵ /s | 2.9 ×10⁷ /M/s
